Several values for one entry are separate records, joined by “and”; a condition that tells them apart may be missing. Identical values can stand only once.
Tests used:
[1] = molecular target: IncC of plasmid RA3 fused to CyaA T25 (BACTH) (plasmid RA3 (IncU), isolated from Aeromonas spp.); assay: two-hybrid; bacterial adenylate cyclase two-hybrid (BACTH) in E. coli BTH101 cyaA; CyaA T18 and T25 fusions; MacConkey plates with 1% maltose and β-galactosidase assays in liquid cultures
[2] = molecular target: KfrA of plasmid RA3, intact, fused to a CyaA fragment (BACTH) (plasmid RA3 (IncU), isolated from Aeromonas spp.); assay: as above
[3] = molecular target: KorB of plasmid RA3 fused to a CyaA fragment (BACTH) (plasmid RA3 (IncU), isolated from Aeromonas spp.); assay: as above
[4] = molecular target: His6-KfrCRA3 labelled with RED-Tris-NTA (plasmid RA3 (IncU), isolated from Aeromonas spp.); assay: MST; labelled His6-KfrC constant at 50 nM, KfrA from 500 nM to 0.0153 nM; 50 mM KPi pH 7.4, 300 mM NaCl, 0.05% Tween 20; measured at 37°C on Monolith NT.115; four independent experiments
[5] = tested on: His6-KfrA WT (plasmid RA3 (IncU; Aeromonas hydrophila in Fig S1/S3)); assay: EMSA; conditions: EMSA: 50 mM Tris-HCl pH 8.0, 10 mM MgCl2, 50 mM NaCl, 37 C, 30 min, 10 nM EcoRI-NdeI-digested plasmid DNA (vector fragment as internal competitor), 20 ul …
[6] = tested on: His6-KfrA178-355 (plasmid RA3 (IncU; Aeromonas hydrophila in Fig S1/S3)); assay: EMSA; conditions: EMSA: 50 mM Tris-HCl pH 8.0, 10 mM MgCl2, 50 mM NaCl, 37 C, 30 min, 10 nM EcoRI-NdeI-digested plasmid DNA (vector fragment as internal competitor), 20 ul …

Question: How did the β-galactosidase activity [1] turn out when “KfrA of plasmid RA3, intact, fused to a CyaA fragment (BACTH) (natural protein)” was run?
Answer: 136 U

Question: And the β-galactosidase activity [2]?
Answer: 4880 U and 5170 U

Question: And the β-galactosidase activity [3]?
Answer: 1970 U

Question: “KfrARA3 with the His6 tag removed (natural protein)” was tested. Which Kd [4] did it give?
Answer: 54 nM

Question: For “KfrC of plasmid RA3, intact, fused to a CyaA fragment (BACTH) (natural protein)”, which β-galactosidase activity [3] is on record?
Answer: 1010 U

Question: Which K half ([5]; OK variant series) does the source give for “WT OK (kfrAp), EcoRI-NdeI fragment of pESB2.68” here?
Answer: 240 nM

Question: And the K half ([5]; preparation used with Ala variants)?
Answer: 180 nM

Question: And the K half ([5]; preparation used with deletion variants, preparations ranged 0.18-0.32 uM)?
Answer: 320 nM

Question: And the K half [6]?
Answer: 1700 nM

Question: Which K half [6] does the source give for pUC18 vector control fragment here?
Answer: 1000 nM
